Experimental data taken from paper PMC2884007.

Columns and labels:
[1] = target: Mimivirus cyclophilin (mimicyp), full length wild type (Mimivirus) (UniProt Q5UP71); experiment: crystal structure
[2] = target: Mimivirus cyclophilin (mimicyp), full length wild type (Mimivirus) (UniProt Q5UP71); experiment: SEC + other: NMR

Mimivirus cyclophilin (mimicyp), full length wild type (from UniProt Q5UP71 1-234) (natural protein)
stoichiometry N [1]: 3 | Kd [2]: 50 to 500 µM
